Test results: patent US20230080534A1 (SHANGHAI BIOTROY BIOTECHNIQUE, published 2023)
Numbering of substitutions follows the chain as printed. No end group written: not given here.

B1: MM07 (antibody, V domains shown)
VH: QIQLVQSGPELKKPGETVRISCKASGYTLTTAGMQWVQKIPGKGLKWIGWINTHSGVAEFAEDFKGRFAFSLETSANTAYLQIRNLKNEDTATYFCARLGLLGYWGQGTTLTVSS
VL: DILLTQSPAILSVSPGERVSFSCRASQSIGTTIHWYQQRTNGSPRLLIKYASESISGIPSRFSGSGSGTDFTLSINSVESEDIADYYCQQSNSWPWTFGGGTKLEIKR
notes: The VH and VL begin with what look like leader peptides (MDWLW..., MVSSAQ...)
B2: MM08 (antibody, IgG1, V domains shown)
VH: QVQLQQPGAELVRPGASVKLSCKSSDYTFTRYWMNWVKQRPGQGLEWIGMIDPSDSETHHNQMFKDKATLTVDKSSSTAYMQLSSLTSEDSAVYFCARYLGGKEGSFDYWGQGTTLTVSS
VL: DIVLTQSPSSLAVSAGERVTMSCKSSQSLFNSRTRKNYLAWYQQKPGQSPKLLLYWASTRESGVPDRFTGSGSGTDFTLTISSVKTEDLAVYYCKQSYELPWTFGGGTKLEMKR
B3: MM13 (antibody, V domains shown)
VH: EVQLQQSGAELVRSGASVKLSCTASGFNIKDYYMHWMKQRPEQGLEWIGWIDPENGDNEYAPKFQGKATMTADTSSNTAYLQLSSLTSEDTAVYYCNVGGAHYWGQGTTLTVSS
VL: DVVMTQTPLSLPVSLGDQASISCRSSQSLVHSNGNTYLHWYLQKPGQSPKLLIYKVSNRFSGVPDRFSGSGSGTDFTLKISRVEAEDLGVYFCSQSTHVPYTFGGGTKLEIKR
B4: 67-3-67-3 (antibody, V domains shown)
VH: QVQLLESGGGVVQPGRSLRLSCAASGFTFSSYAMHWVRQASGKGLEWVAVISYDGSNKYYADSVKGRFTISRDNSKNTLYLQMNSLRAEDTAVYYCARMDNHGSPDYWGQGTLVTVSS
VL: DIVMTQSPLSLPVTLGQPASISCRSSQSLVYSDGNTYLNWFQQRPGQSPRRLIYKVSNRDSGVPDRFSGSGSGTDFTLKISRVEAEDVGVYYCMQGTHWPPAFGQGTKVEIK
B5: 67-3-67-4 (antibody, V domains shown)
VH: B4 VH
VL: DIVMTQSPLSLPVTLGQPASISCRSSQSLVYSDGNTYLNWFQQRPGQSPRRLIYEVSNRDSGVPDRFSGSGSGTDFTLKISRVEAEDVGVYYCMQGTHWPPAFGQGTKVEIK
B6: 67-3-67-5 (antibody, V domains shown)
VH: B4 VH
VL: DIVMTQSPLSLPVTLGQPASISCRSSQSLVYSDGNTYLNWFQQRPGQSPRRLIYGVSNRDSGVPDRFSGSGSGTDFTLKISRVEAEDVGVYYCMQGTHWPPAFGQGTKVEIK
B7: 67-9-67-3 (antibody, V domains shown)
VH: B4 VH with N101S, H102G
VL: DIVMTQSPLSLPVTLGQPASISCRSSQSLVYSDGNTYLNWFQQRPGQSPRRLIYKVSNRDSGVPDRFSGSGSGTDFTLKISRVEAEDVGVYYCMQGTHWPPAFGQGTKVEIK
B8: MM15 (antibody, IgG2a, V domains shown)
VH: QVQLKESGPGLVAPSQSLSITCTVSGFSLTRYGVSWVRQTPGKGLEWLGIIWGDGSTNYHSALISRLSISKDNSKSQVFLKLNSLQTDDTATYYCAKQERFSDGYYDGFAYWGQGTLVTVSA
VL: QIVLTQSPAIMSASPGEKVTITCSASSSVSYMHWFQQKPGTSPKLWIYSTSNLASGVPARFSGSGSGTSYSLTISRMEAEDAATYYCQQRSSYPFTFGSGTKLEIKR

Target: T1, QIEKLVEAKSQIQ
T1 construct: member of the group m41; position 504 is glycine in SEMG2 and the sheet prints alanine there
T1 peptide: QIEKLVEAKSQIQ
Experiment: ELISA, immobilized peptide QIEKLVEAKSQIQ
Excerpt: (§1) FIG. 20 depicts the value detected by ELISA, i.e., OD₄₅₀ absorbance. […] This experiment is used to determine the precise amino acid epitopes that different monoclonal antibodies bind to, and the relative importance of each amino acid to the binding antibody.

Binder	OD450 absorbance
B1	0.58
B2	0.824
B3	0.842

target: T2, human SEMG2 full-length protein (human, UniProt Q02383 24-582, limits assumed); experiment: ELISA on SEMG2; the EC50 table prints no unit, the axis is log (antibody concentration, nM)
T2 construct: also called SEMG2 protein; semenogelin 2
T2 sequence: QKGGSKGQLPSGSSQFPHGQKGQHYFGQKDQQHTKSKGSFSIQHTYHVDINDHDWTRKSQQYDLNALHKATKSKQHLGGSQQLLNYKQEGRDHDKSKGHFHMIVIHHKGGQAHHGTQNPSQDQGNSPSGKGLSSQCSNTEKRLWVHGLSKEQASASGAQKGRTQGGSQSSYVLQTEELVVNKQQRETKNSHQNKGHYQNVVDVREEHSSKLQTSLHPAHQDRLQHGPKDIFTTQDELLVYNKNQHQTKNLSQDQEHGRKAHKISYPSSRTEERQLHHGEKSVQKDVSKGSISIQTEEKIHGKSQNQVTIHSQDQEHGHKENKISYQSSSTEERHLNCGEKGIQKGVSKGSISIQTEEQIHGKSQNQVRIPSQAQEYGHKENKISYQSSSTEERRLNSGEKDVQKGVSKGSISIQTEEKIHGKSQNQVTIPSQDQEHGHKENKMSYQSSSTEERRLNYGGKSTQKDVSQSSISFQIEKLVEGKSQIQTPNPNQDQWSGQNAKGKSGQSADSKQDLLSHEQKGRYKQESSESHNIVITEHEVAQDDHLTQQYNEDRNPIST

Binder	EC50 [nM]
B4	0.614
B5	0.537
B6	0.68
B7	0.272

Target: T3, QIEKLAEGKSQIQ (not fully specified)
T3 construct: member of the group m41; the text speaks of glycine substitution, the sheet prints alanine
T3 peptide: QIEKLAEGKSQIQ
Experiment: ELISA, immobilized peptide QIEKLAEGKSQIQ
Excerpt: as §1

Binder	OD450 absorbance
B1	0.814
B2	0.509
B3	0.658

Target: T4, AIEKLVEGKSQIQ (not fully specified)
T4 construct: member of the group m41; the text speaks of glycine substitution, the sheet prints alanine
T4 peptide: AIEKLVEGKSQIQ
Experiment: ELISA, immobilized peptide AIEKLVEGKSQIQ
Excerpt: as §1

Binder	OD450 absorbance
B1	0.919
B2	0.942
B3	0.48

Target: T5, SEMG2(497-509) polypeptide QIEKLVEGKSQIQ (human)
T5 peptide: QIEKLVEGKSQIQ
Experiment: ELISA, immobilized peptide QIEKLVEGKSQIQ
Excerpt: as §1

Binder	OD450 absorbance
B1	1.19
B2	1.26
B3	1.23

Target: T6, QIEKLVEGKAQIQ (not fully specified)
T6 construct: alanine at this position
T6 peptide: QIEKLVEGKAQIQ
Experiment: ELISA, immobilized peptide QIEKLVEGKAQIQ
Excerpt: as §1

Binder	OD450 absorbance
B1	0.296
B2	0.023
B3	0.211

Target: T7, QIEKAVEGKSQIQ (not fully specified)
T7 construct: alanine at this position
T7 peptide: QIEKAVEGKSQIQ
Experiment: ELISA, immobilized peptide QIEKAVEGKSQIQ
Excerpt: as §1

Binder	OD450 absorbance
B1	0.123
B2	0.213
B3	0.049

target: T2, human SEMG2 full-length protein; experiment: ELISA, immobilized antigen SEMG2 (1-582)
Excerpt: (§2) To clearly distinguish the binding epitopes of blocking antibodies (i.e., antibodies that can inhibit the binding between SEMG2 and CD27) and non-blocking antibodies, a corresponding ELISA analysis method was established. […] Anti-mouse or anti-rabbit secondary antibodies were then used to detect the corresponding bound antibodies.

Binder	A450 absorbance
B1	1.14
B2	1.13
B3	1.13

Target: T8, QIEKLVAGKSQIQ (not fully specified)
T8 construct: member of the group m41; the text speaks of glycine substitution, the sheet prints alanine
T8 peptide: QIEKLVAGKSQIQ
Experiment: ELISA, immobilized peptide QIEKLVAGKSQIQ
Excerpt: as §1
To further precisely define the exact epitopes (specific to the level of single amino acid) to which blocking antibodies MM02, MM05, MM07, MM08, MM13, MM14 bind, corresponding ELISA analysis method was established. […] Anti-mouse or anti-rabbit secondary antibodies were then used to detect the corresponding bound antibodies.

Binder	OD450 absorbance
B1	0.899
B2	0.566
B3	0.738

Target: T9, QIEKLVEGKSQAQ (not fully specified)
T9 construct: member of the group m41; the text speaks of glycine substitution, the sheet prints alanine
T9 peptide: QIEKLVEGKSQAQ
Experiment: ELISA, immobilized peptide QIEKLVEGKSQAQ
Excerpt: as §1

Binder	OD450 absorbance
B1	0.509
B2	0.798
B3	0.699

Target: T10, QIEALVEGKSQIQ (not fully specified)
T10 construct: member of the group m41; the text speaks of glycine substitution, the sheet prints alanine
T10 peptide: QIEALVEGKSQIQ
Experiment: ELISA, immobilized peptide QIEALVEGKSQIQ
Excerpt: as §1

Binder	OD450 absorbance
B1	0.822
B2	0.789
B3	0.712

target: T2, human SEMG2 full-length protein; experiment: biolayer interferometry (ForteBio Blitz or Gator)
Description: The equilibrium dissociation constant (KD) of the antibody of the present invention binding to human SEMG2 was determined by biolayer interferometry (ForteBio Bltz or Gator instrument). […] 100 μl of SD buffer, antibody and SEMG2 were added to a 96-well black polystyrene half area microplate, respectively. Select the sensor location based on the sample location layout. KD values were analyzed using molecular interaction analysis software. In the experiments of the assays, the affinity constants of murine monoclonal antibodies and human antibodies H88-67, H88-93 and H88-96 are shown in Table 8, and the affinity and dissociation curves of SEMG2 and corresponding proteins are shown in FIG. 25.

Binder	Kd [nM]
B1	1.82
B2	2.34
B3	0.693

target: T2, human SEMG2 full-length protein; experiment: ELISA, plate coated with SEMG2 protein, anti-mouse secondary antibody; the EC50 table prints no unit, the axis is log (antibody concentration, nM)

Binder	EC50 [nM]
B2	0.418
B3	0.382
B8	0.444

Target: T11, QIEKLVEGKSQIA (not fully specified)
T11 construct: alanine at this position
T11 peptide: QIEKLVEGKSQIA
Experiment: ELISA, immobilized peptide QIEKLVEGKSQIA
Excerpt: as §1

Binder	OD450 absorbance
B1	1.26
B2	1.19
B3	1.25

Target: T12, BSA-conjugated human SEMG2 (497-509) polypeptide (human, also: coupled to BSA, site not given here)
T12 peptide: QIEKLVEGKSQIQ
Experiment: ELISA (FIG. 21B-D)

Binder	fold higher affinity than the parent antibody (H88-67) [fold]
B4	> 10
B5	> 10
B6	> 10
B7	> 10

target: T2, human SEMG2 full-length protein; experiment: ELISA (FIG. 21B-D)

Binder	fold higher affinity than the parent antibody (H88-67) [fold]
B4	> 10
B5	> 10
B6	> 10
B7	> 10

Target: T13, QIAKLVEGKSQIQ (not fully specified)
T13 construct: member of the group m41; the text speaks of glycine substitution, the sheet prints alanine
T13 peptide: QIAKLVEGKSQIQ
Experiment: ELISA, immobilized peptide QIAKLVEGKSQIQ

Binder	OD450 absorbance
B1	0.48
B2	0.544
B3	0.67

Target: T14, SEMG2(442-453) fragment (human)
T14 peptide: IHGKSQNQVTIP
Experiment: ELISA, immobilized antigen SEMG2 (442-453)
Excerpt: as §2

Binder	A450 absorbance	binding result
B1	0.011	no binding
B2	0.008	no binding
B3	0.008	no binding

Target: T15, SEMG2(354-403) fragment (human)
T15 peptide: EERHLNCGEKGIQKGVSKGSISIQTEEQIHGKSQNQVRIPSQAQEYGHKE
Experiment: ELISA, immobilized antigen SEMG2 (354-403)
Excerpt: as §2

Binder	A450 absorbance	binding result
B1	0.001	no binding
B2	0.012	no binding
B3	0.001	no binding

Target: T5, SEMG2(497-509) polypeptide QIEKLVEGKSQIQ
Experiment: ELISA, immobilized antigen SEMG2 (497-509)
Excerpt: as §2

Binder	A450 absorbance
B1	1.14
B2	1.14
B3	1.14

Target: T16, QIEKLVEGKSAIQ (not fully specified)
T16 construct: alanine at this position
T16 peptide: QIEKLVEGKSAIQ
Experiment: ELISA, immobilized peptide QIEKLVEGKSAIQ
Excerpt: as §1

Binder	OD450 absorbance
B1	1.16
B2	1.22
B3	1.19

Target: T17, QAEKLVEGKSQIQ (not fully specified)
T17 construct: member of the group m41; the text speaks of glycine substitution, the sheet prints alanine
T17 peptide: QAEKLVEGKSQIQ
Experiment: ELISA, immobilized peptide QAEKLVEGKSQIQ
Excerpt: as §1

Binder	OD450 absorbance
B1	0.833
B2	0.671
B3	0.467

Target: T18, SEMG2(563-574) fragment (human)
T18 peptide: VAQDDHLTQQYN
Experiment: ELISA, immobilized antigen SEMG2 (563-574)
Excerpt: as §2

Binder	A450 absorbance	binding result
B1	0.012	no binding
B2	0.001	no binding
B3	0.01	no binding

Target: T19, QIEKLVEGASQIQ (not fully specified)
T19 construct: member of the group m41; the text speaks of glycine substitution, the sheet prints alanine
T19 peptide: QIEKLVEGASQIQ
Experiment: ELISA, immobilized peptide QIEKLVEGASQIQ
Excerpt: as §1

Binder	OD450 absorbance
B1	0.79
B2	0.939
B3	0.818
